According to the supplement of paper PMC9732359:
± gives the uncertainty stated by the source.

Assay: protein stability index of a GFP-peptide fusion (yeast GPS) (PSI 1-4); higher = more stable; sorted into four equal gates, so the index is relative within each strain
Procedure, shortened: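 Mid-log yeast cultures in leucine-free medium, carrying a pooled plasmid library, were sorted into four equal gates by their GFP/Cherry fluorescence ratio. Each plasmid expressed Cherry along with GFP fused upstream of a tiled 17-residue yeast protein peptide. Plasmids recovered from each gate were PCR-amplified and Illumina-sequenced, with reads assigned to strains by barcodes. The protein stability index was obtained by summing each gate's read frequency weighted by its gate number.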

SANGYLNATTAMDLAQM [BRR2]
protein stability index (doa10∆): 3.23 ± 0.17
protein stability index (san1∆): 3.15 ± 0.088

TSAKEPSENDVFYRMQQ [RPO31]
protein stability index (doa10∆): 3.08 ± 0.082
protein stability index (pdr5∆): 3.08 ± 0.092
protein stability index (san1∆): 3.13 ± 0.14
protein stability index (ubr1∆): 2.7 ± 0.099

ENDHERGFFHLNEALLQ [CSN12]
protein stability index (doa10∆): 3.08 ± 0.075
protein stability index (pdr5∆): 2.91 ± 0.062
protein stability index (san1∆): 3.28 ± 0.09
protein stability index (ubr1∆): 3.06 ± 0.082

DTFYMNVESVGSIPVDQ [RPB3]
protein stability index (doa10∆): 2.9 ± 0.075
protein stability index (pdr5∆): 2.43 ± 0.056
protein stability index (san1∆): 2.67 ± 0.078
protein stability index (ubr1∆): 2.2 ± 0.12

HFFSKSCSFFAKLSDTL [NUT1]
protein stability index (doa10∆): 2.06 ± 0.047
protein stability index (pdr5∆): 1.77 ± 0.041
protein stability index (san1∆): 1.69 ± 0.085
protein stability index (ubr1∆): 1.95 ± 0.035

LKTRDWIVVLPWFWLLP [POP1]
protein stability index (doa10∆): 1.51 ± 0.12
protein stability index (san1∆): 1.5 ± 0.23
protein stability index (ubr1∆): 2.02 ± 0.1

RNTYQSAMGKQAMGVFL [RPB2]
protein stability index (doa10∆): 1.62 ± 0.097
protein stability index (pdr5∆): 1.63 ± 0.11
protein stability index (san1∆): 1.53 ± 0.12
protein stability index (ubr1∆): 1.79 ± 0.052

DRDALSGWGAVVYIIKK [PUP3]
protein stability index (doa10∆): 3.12 ± 0.081
protein stability index (pdr5∆): 2.96 ± 0.063
protein stability index (san1∆): 2.99 ± 0.06
protein stability index (ubr1∆): 3.13 ± 0.056

RDVELSSDELKVIEEQL [SMC4]
protein stability index (doa10∆): 3.27 ± 0.058
protein stability index (pdr5∆): 3.25 ± 0.072
protein stability index (san1∆): 2.94 ± 0.054
protein stability index (ubr1∆): 3.26 ± 0.055

VMEIGKDAEYLRNYLTP [PUP1]
protein stability index (doa10∆): 2.85 ± 0.076
protein stability index (pdr5∆): 2.85 ± 0.096
protein stability index (san1∆): 2.77 ± 0.086
protein stability index (ubr1∆): 2.85 ± 0.12

TPAELVGKFLGYVSSLV [FAS1]
protein stability index (doa10∆): 1.93 ± 0.064
protein stability index (pdr5∆): 2.04 ± 0.085
protein stability index (san1∆): 1.73 ± 0.081
protein stability index (ubr1∆): 2.06 ± 0.055

LQSISSLTISLYASDYA [RPN7]
protein stability index (doa10∆): 1.71 ± 0.031
protein stability index (pdr5∆): 1.84 ± 0.03
protein stability index (san1∆): 1.83 ± 0.039
protein stability index (ubr1∆): 1.95 ± 0.027

QWLIMLGICTHLGCVPI [RIP1]
protein stability index (doa10∆): 1.69 ± 0.067
protein stability index (pdr5∆): 1.37 ± 0.078
protein stability index (san1∆): 1.29 ± 0.14
protein stability index (ubr1∆): 1.46 ± 0.089

LNATTAMDLAQMLIQGV [BRR2]
protein stability index (doa10∆): 3.08 ± 0.18
protein stability index (pdr5∆): 1.68 ± 0.11
protein stability index (san1∆): 2.58 ± 0.094
protein stability index (ubr1∆): 1.55 ± 0.083

IKKMLHLVWMKGTNDEG [YCS4]
protein stability index (doa10∆): 3.17 ± 0.2
protein stability index (pdr5∆): 3.51 ± 0.11
protein stability index (san1∆): 3.19 ± 0.16
protein stability index (ubr1∆): 3.33 ± 0.18

RKKKFVLDVDPKYAKQK [ISW2]
protein stability index (doa10∆): 2.91 ± 0.077
protein stability index (pdr5∆): 2.45 ± 0.066
protein stability index (san1∆): 2.25 ± 0.12
protein stability index (ubr1∆): 2.66 ± 0.076

DFYVVMNRPGARVTRRK [RPL11A]
protein stability index (doa10∆): 3.22 ± 0.17
protein stability index (pdr5∆): 2.86 ± 0.15
protein stability index (san1∆): 3.28 ± 0.061
protein stability index (ubr1∆): 3.32 ± 0.11

KTNFQDVILDYQTKKFY [REC8]
protein stability index (doa10∆): 1.62 ± 0.072
protein stability index (pdr5∆): 1.59 ± 0.051
protein stability index (san1∆): 1.16 ± 0.096
protein stability index (ubr1∆): 1.24 ± 0.039

ALLNFVLPKIFNSVKSF [SNF2]
protein stability index (doa10∆): 2.44 ± 0.094
protein stability index (pdr5∆): 1.71 ± 0.066
protein stability index (san1∆): 1.98 ± 0.11
protein stability index (ubr1∆): 1.33 ± 0.043

YPVYTRLRTLCRDSDDH [DIS3]
protein stability index (doa10∆): 2.56 ± 0.2
protein stability index (pdr5∆): 2.77 ± 0.13
protein stability index (san1∆): 2.29 ± 0.24
protein stability index (ubr1∆): 2.95 ± 0.046

SNEIKVTNDLDTSAEKD [SIR4]
protein stability index (doa10∆): 3.29 ± 0.095
protein stability index (pdr5∆): 3.35 ± 0.062
protein stability index (san1∆): 3.26 ± 0.055
protein stability index (ubr1∆): 3.04 ± 0.055

TSLFHKFILSGFIFTSM [RRI2]
protein stability index (doa10∆): 2.09 ± 0.046
protein stability index (pdr5∆): 1.66 ± 0.03
protein stability index (san1∆): 1.94 ± 0.07
protein stability index (ubr1∆): 1.52 ± 0.044

SNDNLDLISEILKWVQW [MED1]
protein stability index (doa10∆): 3.03 ± 0.057
protein stability index (pdr5∆): 2.92 ± 0.058
protein stability index (san1∆): 2.9 ± 0.051
protein stability index (ubr1∆): 3.09 ± 0.047

VMMDVDSSGVNDLHHSE [RPN3]
protein stability index (doa10∆): 3.34 ± 0.082
protein stability index (pdr5∆): 3.31 ± 0.076
protein stability index (san1∆): 3.35 ± 0.066
protein stability index (ubr1∆): 3.19 ± 0.054

FGKLLQAYQFLNTFGSK [ITC1]
protein stability index (doa10∆): 1.5 ± 0.064
protein stability index (pdr5∆): 1.26 ± 0.073
protein stability index (san1∆): 1.19 ± 0.12
protein stability index (ubr1∆): 1.31 ± 0.094

KELVECHLYSQRMHAIH [NNF1]
protein stability index (doa10∆): 1.96 ± 0.056
protein stability index (pdr5∆): 2.05 ± 0.049
protein stability index (san1∆): 2.05 ± 0.085
protein stability index (ubr1∆): 2.23 ± 0.05

AILVPMTVNDQPIEKNG [YJR042W/NUP85]
protein stability index (doa10∆): 2.44 ± 0.11
protein stability index (pdr5∆): 1.79 ± 0.073
protein stability index (san1∆): 2.84 ± 0.074
protein stability index (ubr1∆): 2.8 ± 0.079

AFLSKVPEFFQTANEKH [SRP14]
protein stability index (doa10∆): 3.21 ± 0.12
protein stability index (pdr5∆): 3.21 ± 0.17
protein stability index (san1∆): 3.37 ± 0.11
protein stability index (ubr1∆): 3.09 ± 0.26

SLTEATKTNVDNNSKAE [YLR335W/NUP2]
protein stability index (doa10∆): 3.14 ± 0.052
protein stability index (pdr5∆): 3.35 ± 0.064
protein stability index (san1∆): 3.14 ± 0.062
protein stability index (ubr1∆): 3.32 ± 0.042

SKQVTDYYQSIYAKYGA [FAS2]
protein stability index (doa10∆): 2.73 ± 0.051
protein stability index (pdr5∆): 2.67 ± 0.052
protein stability index (san1∆): 2.54 ± 0.057
protein stability index (ubr1∆): 2.77 ± 0.041

LQQAKLRESEISQKLTN [SMC3]
protein stability index (doa10∆): 3.18 ± 0.076
protein stability index (pdr5∆): 3.17 ± 0.073
protein stability index (san1∆): 3.15 ± 0.087
protein stability index (ubr1∆): 2.97 ± 0.069

KEYELLTLQEDYIKDEQ [RPT3]
protein stability index (doa10∆): 3.53 ± 0.12
protein stability index (pdr5∆): 3.13 ± 0.11
protein stability index (san1∆): 3.19 ± 0.083
protein stability index (ubr1∆): 3.25 ± 0.065

IKGIREYEEWQKSVSLL [YDL116W/NUP84]
protein stability index (doa10∆): 2.08 ± 0.14
protein stability index (pdr5∆): 2.66 ± 0.12
protein stability index (san1∆): 2.5 ± 0.17
protein stability index (ubr1∆): 2.55 ± 0.095

NSSEEDKKKGQNVTSET [ITC1]
protein stability index (doa10∆): 3.5 ± 0.14
protein stability index (pdr5∆): 3.31 ± 0.17
protein stability index (san1∆): 3.06 ± 0.17
protein stability index (ubr1∆): 3.29 ± 0.11

PEEEAAIRRENEWAEDR [SKP1]
protein stability index (doa10∆): 3.09 ± 0.1
protein stability index (pdr5∆): 3.15 ± 0.082
protein stability index (san1∆): 3.34 ± 0.05
protein stability index (ubr1∆): 3.28 ± 0.1

YLIDHIKVDGAVGNLGN [RPL22B]
protein stability index (doa10∆): 2.41 ± 0.23
protein stability index (pdr5∆): 2.49 ± 0.14
protein stability index (san1∆): 2.53 ± 0.066
protein stability index (ubr1∆): 2.61 ± 0.24

GKLGQIDYALTAVKQGV [PRE8]
protein stability index (doa10∆): 1.36 ± 0.21
protein stability index (pdr5∆): 1.93 ± 0.13
protein stability index (ubr1∆): 2.54 ± 0.099

EIEMKNKLEKLNSLLTY [SMC4]
protein stability index (doa10∆): 1.71 ± 0.055
protein stability index (pdr5∆): 1.87 ± 0.058
protein stability index (san1∆): 1.85 ± 0.1
protein stability index (ubr1∆): 1.61 ± 0.04

LQQGMRGAWGKPHGLAA [RPL10]
protein stability index (doa10∆): 2.47 ± 0.1
protein stability index (pdr5∆): 2.57 ± 0.097
protein stability index (san1∆): 2.24 ± 0.23
protein stability index (ubr1∆): 2.52 ± 0.069

EIFDVTSNGLKKNPNWL [FAS1]
protein stability index (doa10∆): 3.54 ± 0.16
protein stability index (pdr5∆): 3.46 ± 0.11
protein stability index (san1∆): 2.64 ± 0.18
protein stability index (ubr1∆): 3.37 ± 0.06

EINAVFNELCDPESRTQ [POP1]
protein stability index (doa10∆): 2.91 ± 0.079
protein stability index (pdr5∆): 3.01 ± 0.069
protein stability index (san1∆): 2.75 ± 0.092
protein stability index (ubr1∆): 2.93 ± 0.064

CESCSTVLCTPTGGKAK [RPS27B]
protein stability index (doa10∆): 1.94 ± 0.068
protein stability index (pdr5∆): 2.5 ± 0.056
protein stability index (san1∆): 2.07 ± 0.081
protein stability index (ubr1∆): 2.51 ± 0.053

DLAERASELDESKDSIQ [SMC3]
protein stability index (doa10∆): 3.06 ± 0.093
protein stability index (pdr5∆): 3.1 ± 0.09
protein stability index (san1∆): 2.83 ± 0.17
protein stability index (ubr1∆): 3.17 ± 0.06

VENGTTSIGIKCNDGVV [PRE10]
protein stability index (doa10∆): 2.14 ± 0.11
protein stability index (pdr5∆): 2.1 ± 0.089
protein stability index (san1∆): 1.35 ± 0.21
protein stability index (ubr1∆): 3.31 ± 0.22

PLILTPPQLANQQQPPQ [SNF11]
protein stability index (doa10∆): 1.53 ± 0.066
protein stability index (pdr5∆): 1.93 ± 0.071
protein stability index (san1∆): 2.04 ± 0.093
protein stability index (ubr1∆): 2.15 ± 0.069

SLFTYFREAIVATEPLL [PRP8]
protein stability index (doa10∆): 1.82 ± 0.048
protein stability index (pdr5∆): 1.83 ± 0.051
protein stability index (san1∆): 2.73 ± 0.063
protein stability index (ubr1∆): 1.97 ± 0.041

FVCRGMAATQTIEQSPR [ECM29]
protein stability index (doa10∆): 1.7 ± 0.063
protein stability index (pdr5∆): 1.93 ± 0.062
protein stability index (san1∆): 1.58 ± 0.23
protein stability index (ubr1∆): 1.56 ± 0.054

SPKPYAVKYGLNHVVAL [RPL8A]
protein stability index (doa10∆): 2.22 ± 0.066
protein stability index (pdr5∆): 2.42 ± 0.06
protein stability index (san1∆): 2.44 ± 0.071
protein stability index (ubr1∆): 2.08 ± 0.044

FYKNKYSSKPYKVDNMT [RPN2]
protein stability index (doa10∆): 2.44 ± 0.067
protein stability index (pdr5∆): 2.84 ± 0.072
protein stability index (san1∆): 2.79 ± 0.081
protein stability index (ubr1∆): 2.1 ± 0.075

EQKWLIYDKKDHKYVCT [SRB8]
protein stability index (doa10∆): 2.64 ± 0.29
protein stability index (pdr5∆): 2.33 ± 0.17
protein stability index (ubr1∆): 3.23 ± 0.22

STFREWKNLVLKLSQAF [YJR042W/NUP85]
protein stability index (doa10∆): 2.85 ± 0.079
protein stability index (pdr5∆): 2.37 ± 0.096
protein stability index (san1∆): 2.64 ± 0.068
protein stability index (ubr1∆): 2.74 ± 0.076
